B1: E3 ubiquitin-protein ligase CHIP (Homo sapiens), Q9UNE7-1 (parent)
chain: MKGKEEKEGGARLGAGGGSPEKSPSAQELKEQGNRLFVGRKYPEAAACYGRAITRNPLVAVYYTNRALCYLKMQQHEQALADCRRALELDGQSVKAHFFLGQCQLEMESYDEAIANLQRAYSLAKEQRLNFGDDIPSALRIAKKKRWNSIEERRIHQESELHSYLSRLIAAERERELEECQRNHEGDEDDSHVRAQQACIEAKHDKYMADMDELFSQVDEKRKKRDIPDYLCGKISFELMREPCITPSGITYDRKDIEEHLQRVGHFDPVTRSPLTQEQLIPNLAMKEVIDAFISENGWVEDY

Variants of: B1
Conditions: with akt1_human AKT1, P31749
Sequence of akt1_human AKT1, P31749 (P31749 whole entry): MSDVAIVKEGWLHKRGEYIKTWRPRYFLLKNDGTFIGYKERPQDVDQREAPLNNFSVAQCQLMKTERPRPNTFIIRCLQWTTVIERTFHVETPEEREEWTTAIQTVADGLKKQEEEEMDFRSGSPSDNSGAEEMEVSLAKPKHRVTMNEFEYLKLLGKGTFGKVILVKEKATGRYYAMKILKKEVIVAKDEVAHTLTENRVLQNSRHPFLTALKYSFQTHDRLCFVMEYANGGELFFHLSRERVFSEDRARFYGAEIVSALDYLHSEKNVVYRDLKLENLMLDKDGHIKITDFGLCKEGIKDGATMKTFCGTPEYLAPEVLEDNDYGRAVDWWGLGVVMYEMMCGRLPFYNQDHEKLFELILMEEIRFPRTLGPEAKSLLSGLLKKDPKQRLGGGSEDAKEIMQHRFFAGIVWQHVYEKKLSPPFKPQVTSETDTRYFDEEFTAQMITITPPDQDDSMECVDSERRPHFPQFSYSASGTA

**Q.** With K30A as the variant, how does the “effect of a mutation on the interaction” value read?
**A.** Its value is “disrupting interaction”.
